Experimental data from paper PMC9482650, “Quantitative fragmentomics allow affinity mapping of interactomes” (Nature Communications, 2022).

Assays:
Experiment in all cases: holdup assay
Parameters in all cases: key: below the threshold = too weak to quantify, mostly under pKd 3.1 to 4
Details in all cases: plain residues with an end cap or a label only (N-terminal biotin on a linker: ado-ado)
GRIP2_6, Q9C0E4 = molecular target: GRIP2_6, Q9C0E4
CASK, O14936 = molecular target: CASK, O14936
SCRIB_2, Q14160 = molecular target: SCRIB_2, Q14160
Chain of SCRIB_2, Q14160 (Q14160 857-960): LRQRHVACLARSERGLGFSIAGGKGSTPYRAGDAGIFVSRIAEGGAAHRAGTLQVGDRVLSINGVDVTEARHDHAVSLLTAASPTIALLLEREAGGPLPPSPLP

GRIP2_7, Q9C0E4 = molecular target: GRIP2_7, Q9C0E4
Chain of GRIP2_7, Q9C0E4 (Q9C0E4 934-1023): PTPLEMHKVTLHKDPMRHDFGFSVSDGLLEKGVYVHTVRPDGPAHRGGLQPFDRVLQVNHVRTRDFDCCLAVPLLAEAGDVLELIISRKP

SCRIB_1, Q14160 = molecular target: SCRIB_1, Q14160
Chain of SCRIB_1, Q14160 (Q14160 718-814): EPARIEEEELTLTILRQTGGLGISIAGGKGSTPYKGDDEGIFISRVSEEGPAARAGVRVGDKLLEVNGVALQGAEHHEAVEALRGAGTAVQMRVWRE

MPP7, Q5T2T1 = molecular target: T1, MPP7, Q5T2T1
T1 sequence (Q5T2T1 134-230, limits assumed, looked up): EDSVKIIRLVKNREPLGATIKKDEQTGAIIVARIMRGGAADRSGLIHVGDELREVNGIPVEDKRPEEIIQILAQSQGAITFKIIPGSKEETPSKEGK

GORASP2, Q9H8Y8 = molecular target: GORASP2, Q9H8Y8
GRIP2_5, Q9C0E4 = molecular target: GRIP2_5, Q9C0E4
Chain of GRIP2_5, Q9C0E4 (Q9C0E4 544-642): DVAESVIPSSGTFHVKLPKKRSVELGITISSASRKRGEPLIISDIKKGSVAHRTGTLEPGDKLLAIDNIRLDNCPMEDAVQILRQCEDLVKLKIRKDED

FRMPD4, Q14CM0 = molecular target: FRMPD4, Q14CM0
Chain of FRMPD4, Q14CM0 (Q14CM0 67-160): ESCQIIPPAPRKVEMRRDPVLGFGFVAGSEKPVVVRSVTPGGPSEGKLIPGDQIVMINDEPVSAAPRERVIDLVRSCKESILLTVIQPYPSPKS

GRIP1_5, Q9Y3R0 = molecular target: T2, GRIP1_5, Q9Y3R0
T2 sequence (Q9Y3R0 568-668, limits assumed, looked up): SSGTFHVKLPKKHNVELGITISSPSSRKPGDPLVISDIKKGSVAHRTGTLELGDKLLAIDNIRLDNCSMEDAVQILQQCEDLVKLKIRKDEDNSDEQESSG

GRIP1_3, Q9Y3R0 = molecular target: T3, GRIP1_3, Q9Y3R0
T3 sequence (Q9Y3R0 247-346, limits assumed, looked up): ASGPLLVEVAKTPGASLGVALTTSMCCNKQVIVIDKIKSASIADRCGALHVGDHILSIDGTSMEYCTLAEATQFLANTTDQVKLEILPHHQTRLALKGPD

SYNJ2BP, P57105 = molecular target: T4, SYNJ2BP, P57105
T4 sequence (P57105 8-110, limits assumed, looked up): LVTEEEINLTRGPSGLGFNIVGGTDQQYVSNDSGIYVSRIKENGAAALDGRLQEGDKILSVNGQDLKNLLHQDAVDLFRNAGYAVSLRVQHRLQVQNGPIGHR

APBA1_1, Q02410 = molecular target: T5, APBA1_1, Q02410
T5 sequence (Q02410 651-752, limits assumed, looked up): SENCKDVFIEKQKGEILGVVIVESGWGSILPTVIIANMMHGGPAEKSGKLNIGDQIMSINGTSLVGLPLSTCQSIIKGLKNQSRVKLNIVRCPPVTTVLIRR

Inadl_2, Q8NI35 = molecular target: Inadl_2, Q8NI35
Chain of Inadl_2, Q8NI35 (Q8NI35 238-335): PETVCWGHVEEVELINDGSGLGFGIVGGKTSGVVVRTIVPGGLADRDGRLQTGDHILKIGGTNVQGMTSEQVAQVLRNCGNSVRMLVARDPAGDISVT

GRID2IP_1, A4D2P6 = molecular target: GRID2IP_1, A4D2P6
Chain of GRID2IP_1, A4D2P6 (A4D2P6 1-87): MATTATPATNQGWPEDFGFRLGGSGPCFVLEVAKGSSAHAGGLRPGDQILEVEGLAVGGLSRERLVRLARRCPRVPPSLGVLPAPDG

PDZRN4_1, Q6ZMN7 = molecular target: PDZRN4_1, Q6ZMN7
Chain of PDZRN4_1, Q6ZMN7 (Q6ZMN7 213-318): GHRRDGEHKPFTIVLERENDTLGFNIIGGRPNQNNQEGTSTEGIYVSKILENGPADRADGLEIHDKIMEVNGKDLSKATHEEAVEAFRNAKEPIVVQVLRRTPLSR

GRIP1_7, Q9Y3R0 = molecular target: T6, GRIP1_7, Q9Y3R0
T6 sequence (Q9Y3R0 999-1096, limits assumed, looked up): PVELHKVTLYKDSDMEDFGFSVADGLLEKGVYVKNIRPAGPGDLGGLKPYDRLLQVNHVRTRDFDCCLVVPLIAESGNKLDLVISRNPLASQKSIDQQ

TJP2_1, Q9UDY2 = molecular target: TJP2_1, Q9UDY2
Chain of TJP2_1, Q9UDY2 (Q9UDY2 24-128): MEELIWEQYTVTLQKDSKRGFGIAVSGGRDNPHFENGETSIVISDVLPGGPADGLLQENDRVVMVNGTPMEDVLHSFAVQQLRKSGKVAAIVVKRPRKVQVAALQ

DLG5_1, Q8TDM6 = molecular target: DLG5_1, Q8TDM6
Chain of DLG5_1, Q8TDM6 (Q8TDM6 617-713): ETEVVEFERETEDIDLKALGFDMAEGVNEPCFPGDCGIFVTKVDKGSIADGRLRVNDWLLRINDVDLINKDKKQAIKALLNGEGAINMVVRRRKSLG

TJP3_3, O95049 = molecular target: T7, TJP3_3, O95049
T7 sequence (O95049 375-456, limits assumed, looked up): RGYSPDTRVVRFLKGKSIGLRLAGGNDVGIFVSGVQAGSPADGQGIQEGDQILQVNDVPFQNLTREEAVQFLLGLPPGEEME

GRIP2_4, Q9C0E4 = molecular target: GRIP2_4, Q9C0E4
Chain of GRIP2_4, Q9C0E4 (Q9C0E4 446-548): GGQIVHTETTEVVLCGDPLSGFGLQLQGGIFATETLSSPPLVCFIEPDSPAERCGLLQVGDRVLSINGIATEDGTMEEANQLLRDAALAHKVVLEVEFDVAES

SNX27, Q96L92 = molecular target: SNX27, Q96L92
APBA2_1, Q99767 = molecular target: T8, APBA2_1, Q99767
T8 sequence (Q99767 563-664, limits assumed, looked up): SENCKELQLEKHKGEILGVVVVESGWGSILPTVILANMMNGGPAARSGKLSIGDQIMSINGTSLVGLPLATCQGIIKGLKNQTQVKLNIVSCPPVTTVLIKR

LAP2, Q96RT1 = molecular target: LAP2, Q96RT1
Chain of LAP2, Q96RT1 (Q96RT1 other isoform, or with tags, fused parts or gaps): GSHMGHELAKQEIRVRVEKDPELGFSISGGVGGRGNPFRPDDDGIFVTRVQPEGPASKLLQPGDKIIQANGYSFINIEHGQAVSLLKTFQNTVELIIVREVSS

HTRA2, O43464 = molecular target: HTRA2, O43464
Chain of HTRA2, O43464 (O43464 355-458): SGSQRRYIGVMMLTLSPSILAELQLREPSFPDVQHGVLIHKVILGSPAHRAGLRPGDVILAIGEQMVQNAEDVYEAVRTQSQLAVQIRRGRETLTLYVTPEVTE

MAGI2_4, Q86UL8 = molecular target: MAGI2_4, Q86UL8
Chain of MAGI2_4, Q86UL8 (Q86UL8 772-865): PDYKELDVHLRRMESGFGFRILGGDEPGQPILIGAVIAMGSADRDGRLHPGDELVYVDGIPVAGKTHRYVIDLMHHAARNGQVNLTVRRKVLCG

MAGI2_2, Q86UL8 = molecular target: MAGI2_2, Q86UL8
Chain of MAGI2_2, Q86UL8 (Q86UL8 410-522): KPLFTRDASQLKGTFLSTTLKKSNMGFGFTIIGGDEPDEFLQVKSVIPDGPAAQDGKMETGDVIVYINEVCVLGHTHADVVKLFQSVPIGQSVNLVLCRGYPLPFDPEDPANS

GRIP1_2, Q9Y3R0 = molecular target: T9, GRIP1_2, Q9Y3R0
T9 sequence (Q9Y3R0 145-248, limits assumed, looked up): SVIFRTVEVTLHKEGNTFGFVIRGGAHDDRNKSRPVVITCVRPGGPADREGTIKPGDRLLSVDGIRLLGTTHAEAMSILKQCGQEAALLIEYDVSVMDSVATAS

Chain of GRIP2_6, Q9C0E4 (Q9C0E4 648-740): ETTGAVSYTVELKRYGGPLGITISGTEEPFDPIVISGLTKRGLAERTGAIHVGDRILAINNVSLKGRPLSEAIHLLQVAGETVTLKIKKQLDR
Chain of CASK, O14936 (O14936 487-570): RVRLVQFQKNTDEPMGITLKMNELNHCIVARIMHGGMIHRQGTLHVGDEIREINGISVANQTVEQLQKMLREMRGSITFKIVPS

NSTHNLKDYV [CLDN20, P56880] was tested, and the pKd (GRIP2_6, Q9C0E4) was “below the threshold”, the pKd (CASK, O14936) was “below the threshold” and the pKd (SCRIB_2, Q14160) was “below the threshold”. For the same binder, the pKd (GRIP2_7, Q9C0E4) was “below the threshold”, the pKd (SCRIB_1, Q14160) was “below the threshold” and the pKd (MPP7, Q5T2T1) was “below the threshold”. The pKd (GORASP2, Q9H8Y8) was “below the threshold”, the pKd (GRIP2_5, Q9C0E4) was “below the threshold” and the pKd (FRMPD4, Q14CM0) was “below the threshold”. For the same binder, the pKd (GRIP1_5, Q9Y3R0) was “below the threshold”, the pKd (GRIP1_3, Q9Y3R0) was “below the threshold” and the pKd (SYNJ2BP, P57105) was “below the threshold”. For the same binder, the pKd (APBA1_1, Q02410) was “below the threshold”, the pKd (Inadl_2, Q8NI35) was “below the threshold” and the pKd (GRID2IP_1, A4D2P6) was “below the threshold”. For the same binder, the pKd (PDZRN4_1, Q6ZMN7) was “below the threshold”, the pKd (GRIP1_7, Q9Y3R0) was “below the threshold” and the pKd (TJP2_1, Q9UDY2) was 3.8. The pKd (DLG5_1, Q8TDM6) was “below the threshold”, the pKd (TJP3_3, O95049) was “below the threshold” and the pKd (GRIP2_4, Q9C0E4) was “below the threshold”. The pKd (SNX27, Q96L92) was “below the threshold”, the pKd (APBA2_1, Q99767) was “below the threshold” and the pKd (LAP2, Q96RT1) was “below the threshold”. The pKd (HTRA2, O43464) was “below the threshold”, the pKd (MAGI2_4, Q86UL8) was “below the threshold” and the pKd (MAGI2_2, Q86UL8) was “below the threshold”. For the same binder, the pKd (GRIP1_2, Q9Y3R0) was “below the threshold”.

Work on QLKSGRDSTV [TMEM178A, Q8NBL3] yielded a pKd (GRIP2_6, Q9C0E4) of 3.49, a pKd (CASK, O14936) of 3.54 and a pKd (SCRIB_2, Q14160) of 3.69. The pKd (GRIP2_7, Q9C0E4) was 3.55, the pKd (SCRIB_1, Q14160) was 3.56 and the pKd (MPP7, Q5T2T1) was “below the threshold”. For the same binder, the pKd (GORASP2, Q9H8Y8) was “below the threshold”, the pKd (GRIP2_5, Q9C0E4) was “below the threshold” and the pKd (FRMPD4, Q14CM0) was 3.61. The pKd (GRIP1_5, Q9Y3R0) was “below the threshold”, the pKd (GRIP1_3, Q9Y3R0) was “below the threshold” and the pKd (SYNJ2BP, P57105) was 4.48. The pKd (APBA1_1, Q02410) was “below the threshold”, the pKd (Inadl_2, Q8NI35) was “below the threshold” and the pKd (GRID2IP_1, A4D2P6) was “below the threshold”. For the same binder, the pKd (PDZRN4_1, Q6ZMN7) was 3.53, the pKd (GRIP1_7, Q9Y3R0) was “below the threshold” and the pKd (TJP2_1, Q9UDY2) was “below the threshold”. For the same binder, the pKd (DLG5_1, Q8TDM6) was 3.83, the pKd (TJP3_3, O95049) was 3.5 and the pKd (GRIP2_4, Q9C0E4) was “below the threshold”. The pKd (SNX27, Q96L92) was 4.01, the pKd (APBA2_1, Q99767) was 3.52 and the pKd (LAP2, Q96RT1) was 3.63. It also gave a pKd (HTRA2, O43464) of 3.65, a pKd (MAGI2_4, Q86UL8) of 3.92 and a pKd (MAGI2_2, Q86UL8) of 4. For the same binder, the pKd (GRIP1_2, Q9Y3R0) was “below the threshold”.

In the case of DLLGGGSDSI [TNRC6B, Q9UPQ9], the pKd (GRIP2_6, Q9C0E4) is reported as “below the threshold”, the pKd (CASK, O14936) is reported as “below the threshold” and the pKd (SCRIB_2, Q14160) is reported as “below the threshold”. For the same binder, the pKd (GRIP2_7, Q9C0E4) was “below the threshold”, the pKd (SCRIB_1, Q14160) was “below the threshold” and the pKd (MPP7, Q5T2T1) was “below the threshold”. For the same binder, the pKd (GORASP2, Q9H8Y8) was “below the threshold”, the pKd (GRIP2_5, Q9C0E4) was “below the threshold” and the pKd (FRMPD4, Q14CM0) was 3.56. For the same binder, the pKd (GRIP1_5, Q9Y3R0) was “below the threshold”, the pKd (GRIP1_3, Q9Y3R0) was “below the threshold” and the pKd (SYNJ2BP, P57105) was “below the threshold”. For the same binder, the pKd (APBA1_1, Q02410) was “below the threshold”, the pKd (Inadl_2, Q8NI35) was “below the threshold” and the pKd (GRID2IP_1, A4D2P6) was “below the threshold”. The pKd (PDZRN4_1, Q6ZMN7) was “below the threshold”, the pKd (GRIP1_7, Q9Y3R0) was “below the threshold” and the pKd (TJP2_1, Q9UDY2) was “below the threshold”. For the same binder, the pKd (DLG5_1, Q8TDM6) was “below the threshold”, the pKd (TJP3_3, O95049) was “below the threshold” and the pKd (GRIP2_4, Q9C0E4) was “below the threshold”. The pKd (SNX27, Q96L92) was “below the threshold”, the pKd (APBA2_1, Q99767) was “below the threshold” and the pKd (LAP2, Q96RT1) was “below the threshold”. For the same binder, the pKd (HTRA2, O43464) was “below the threshold”, the pKd (MAGI2_4, Q86UL8) was “below the threshold” and the pKd (MAGI2_2, Q86UL8) was “below the threshold”. The pKd (GRIP1_2, Q9Y3R0) was “below the threshold”.

For TKEIPNCTSV [SORCS3, Q9UPU3], the pKd (GRIP2_6, Q9C0E4) was “below the threshold”, the pKd (CASK, O14936) was “below the threshold” and the pKd (SCRIB_2, Q14160) was 4.44. The pKd (GRIP2_7, Q9C0E4) was “below the threshold”, the pKd (SCRIB_1, Q14160) was 4.53 and the pKd (MPP7, Q5T2T1) was “below the threshold”. For the same binder, the pKd (GORASP2, Q9H8Y8) was 3.75, the pKd (GRIP2_5, Q9C0E4) was “below the threshold” and the pKd (FRMPD4, Q14CM0) was 3.65. For the same binder, the pKd (GRIP1_5, Q9Y3R0) was “below the threshold”, the pKd (GRIP1_3, Q9Y3R0) was “below the threshold” and the pKd (SYNJ2BP, P57105) was 4.72. For the same binder, the pKd (APBA1_1, Q02410) was “below the threshold”, the pKd (Inadl_2, Q8NI35) was “below the threshold” and the pKd (GRID2IP_1, A4D2P6) was “below the threshold”. For the same binder, the pKd (PDZRN4_1, Q6ZMN7) was 3.94, the pKd (GRIP1_7, Q9Y3R0) was “below the threshold” and the pKd (TJP2_1, Q9UDY2) was “below the threshold”. The pKd (DLG5_1, Q8TDM6) was “below the threshold”, the pKd (TJP3_3, O95049) was 3.54 and the pKd (GRIP2_4, Q9C0E4) was “below the threshold”. The pKd (SNX27, Q96L92) was 5.16, the pKd (APBA2_1, Q99767) was “below the threshold” and the pKd (LAP2, Q96RT1) was 3.98. The pKd (HTRA2, O43464) was “below the threshold”, the pKd (MAGI2_4, Q86UL8) was 4.16 and the pKd (MAGI2_2, Q86UL8) was 4.29. The pKd (GRIP1_2, Q9Y3R0) was “below the threshold”.
